The record followed here is publication PMC5323315 (Molecular microbiology, 2017).

This experiment has as its target T1, DnaAΔC with a C-terminal hexa-histidine tag (B. subtilis, UniProt P05648 1-355).
T1 sequence (looked up): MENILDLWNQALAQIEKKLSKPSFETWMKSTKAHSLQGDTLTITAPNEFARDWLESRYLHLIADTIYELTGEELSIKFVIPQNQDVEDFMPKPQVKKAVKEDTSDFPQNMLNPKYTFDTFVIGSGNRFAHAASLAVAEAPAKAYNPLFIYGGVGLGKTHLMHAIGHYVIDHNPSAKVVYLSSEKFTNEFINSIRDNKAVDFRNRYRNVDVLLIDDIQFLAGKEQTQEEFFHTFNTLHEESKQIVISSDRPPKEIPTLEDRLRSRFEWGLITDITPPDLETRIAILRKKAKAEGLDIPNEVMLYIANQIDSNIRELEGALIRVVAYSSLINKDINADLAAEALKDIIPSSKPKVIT
In words: native gel or EMSA.

B1: Rok with a C-terminal hexa-histidine tag (natural protein, B. subtilis, UniProt O34857 1-191, looked up)
chain: MFNEREALRLRLEQLNEAEVKVIREYQIERDKIYAKLRELDRNGSPSEIKKDFRSEKKPDSLPVLAELAAQEIRSYQPQSQQQSVQPQLQSISSLPAGIPDGTTRRRRGTARPGSKAAKLREAAIKTLKRHNAAIKSSELQKEIEKESGLEIPNMTTFMQSLIKMYPEVKKPYRGQYILEGEIESAESANE
In the case of B1, the binding result is recorded as “binds”.
